Reference: patent publication US20230357367A1
Read-outs that look alike come from different tables or passages of the source.

Key:
Assay in all cases: cell-based or functional assay
[1] = biological target: SARS-CoV-1 Spike on pseudovirus (SARS-CoV-1) (UniProt P59594)
[2] = biological target: WIV1 Spike on pseudovirus (WIV1 (bat SARS-like coronavirus))
[3] = biological target: SARS-CoV-1 Spike on pseudovirus (SARS-CoV-1) (UniProt P59594); remark: listed apart in the source
[4] = biological target: WIV1 Spike on pseudovirus (WIV1 (bat SARS-like coronavirus)); remark: listed apart in the source
[5] = biological target: spike (SARS-CoV-1) (SARS-CoV-1) (UniProt P59594)
[6] = biological target: spike (WIV-1) (WIV1 (bat SARS-like coronavirus))

AZD1061 (antibody) was tested, and the % neutralization at 4.5 µg/ml, pseudovirus [1] was 1.2% and the % neutralization at 4.5 µg/ml, pseudovirus [2] was 0.8%.

Work on AZD8895 (antibody) yielded a % neutralization at 4.5 µg/ml, pseudovirus [1] of 1.7% and a % neutralization at 4.5 µg/ml, pseudovirus [2] of 0.6%.

In the case of “Sotrovimab VH/VL (human IgG1 molecule expressing the same variable regions of Sotrovimab) (antibody)”, the IC50, pseudovirus neutralization [3] was 0.0089 µg/mL, the IC50, pseudovirus neutralization [4] was 0.0274 µg/mL and the % neutralization at 4.5 µg/ml, pseudovirus [1] was 101%. For the same substance, the IC50, pseudovirus neutralization [1] was 0.014 µg/mL, the % neutralization at 4.5 µg/ml, pseudovirus [2] was 99.4% and the IC50, pseudovirus neutralization [2] was 0.032 µg/mL.

Work on bebtelovimab (antibody) yielded an Emax, pseudovirus neutralization (% neutralization) [5] of 8 and an Emax, pseudovirus neutralization (% neutralization) [6] of 6.99.
